Data from US20240165260A1, “CONJUGATES OF ANTIBODY AND FUNCTIONAL SUBSTANCE OR SALTS THEREOF, AND COMPOUNDS USED IN PRODUCTION OF THE SAME OR SALTS THEREOF” (priority 2021, published 2024).

Experiments:
[1] = Evaluation of aggregation ratio by size exclusion chromatography (SEC-HPLC); assay type: physicochemical; conditions: UV 280 nm
Method: SEC-HPLC analysis was performed according to a previous report (Chemistry Select, 2020, 5, 8435-8439, which is incorporated herein by reference in its entirety). Measurement was performed using the following conditions.
Measurement system: 1260 HPLC system (manufactured by Agilent)
Column: AdvanceBio SEC 300 Å, 2.7 μm, 4.6 mm×150 mm, manufactured by Agilent Technologies
Eluent: 100 mM sodium dihydrogen phosphate/sodium hydrogen phosphate, aqueous solution of 250 mM sodium chloride (pH 6.8), 10′% v/v isopropanol

[2] = biological target: cathepsin B (Homo sapiens, UniProt P07858); experiment: Cathepsin B cleavability test of ADC mimics (released fluorescent molecules, HPLC/fluorescence); assay type: biochemical; conditions: 1 mg/mL ADC mimic, MES buffer pH 5.0, 37° C., six hours
Method: Cleave abilities for various ADC mimics by cathepsin B were evaluated by analyzing the amount of fluorescent molecules released from the ADC mimics as described below.
A cathepsin B cleavability test was performed as follows according to a previous report (Nature Communications 2018, 9, 2512, which is incorporated herein by reference in its entirety). An ADC mimic was added to 180 μL of a MES buffer (10 mM MES, 40 μM DTT, pH 5.0) so as to have a concentration of 1 mg/mL, and then 30 μL of the solution was poured into each of six Eppendorf tubes. To each of three of the six samples, 100 μL of acetonitrile was immediately added at 0° C. The mixture was stirred by vortex, and then centrifuged to obtain a precipitate. The resulting supernatant solution was collected and subjected to HPLC analysis. The remaining three samples were incubated at 37° C. for six hours. To each of the samples, 100 μL of acetonitrile was added. The mixture was stirred by vortex, and then centrifuged to obtain a precipitate. The resulting supernatant solution was collected and subjected to HPLC analysis.
For the measurement, the amount of fluorescent molecules released from an ADC mimic was measured using a liquid chromatography/fluorescence detection method. The three samples to which acetonitrile was immediately added at 0° C. in Example 7-1 were taken as 0 hour samples, and the three samples incubated at 37° C. for six hours as described in Example 7-1 were taken as 6 hour samples. A difference in fluorescence intensity between the 6 hour samples and the 0 hour samples was analyzed.
Separately, a correlation between the area of a fluorescence intensity area by HPLC and a concentration was calculated using Pyrene. The difference in fluorescence intensity between the ADC mimics was converted into a concentration using the calculation formula. When the concentration at 0 hour was set to 100%, a ratio of the above-described difference in fluorescence intensity was calculated as a releasing ratio.

[3] = Evaluation of hydrophobicity by hydrophobic column chromatography (HIC-HPLC); assay type: physicochemical; conditions: hydrophobicity measure, Tosoh Biobuthyl NPR column, UV 280 nm
Method: According to a previous report (Anal. Chem., 2019, 91, 20, 12724-12732, which is incorporated herein by reference in its entirety), HIC-HPLC analysis was performed. Measurement was performed using the following conditions. The hydrophobicity of an ADC can be evaluated by retention time of the ADC in HIC chromatogram.
Measurement system: Chromaster (registered trademark) (manufactured by Hitachi, Ltd.)
Column: Tosoh Biobuthyl NPR 2.5 μm 4.6×35 mm column manufactured by Tosoh Bio-Sciences Inc.
Gradient: linear gradient of eluent A/B
Eluent B: 25 mM Na2HPO4/NaH2PO4 (pH 6.0, 25 v/v % isopropanol added)

[4] = Test for stability of ADC mimic in mouse plasma (released fluorescent molecules); assay type: in vitro ADME; conditions: 0.1 mg/mL, 37° C., four days
Method: An ADC mimic was added to 500 μL of mouse plasma (manufactured by Charles River) so as to have a concentration of 0.1 mg/mL, and then the mixture was subjected to sterile filtration. 50 μL of this solution was poured into each of six Eppendorf tubes. Three of the six samples were stored in an incubator set at 37° C. for four days. The remaining three samples were stored in a freezer at −80° C. for four days similarly. To each of the samples, 100 μL of acetonitrile was added. The mixture was stirred by vortex, and then centrifuged to obtain a precipitate. The resulting supernatant solution was collected and subjected to HPLC analysis.
For the measurement, the amount of fluorescent molecules released from an ADC mimic was measured using a liquid chromatography/fluorescence detection method. The three samples stored in a freezer in Example 9-1 were taken as Day=0 samples, and the three samples stored at 37° C. in Example 9-1 were taken as Day=4 samples. A difference in fluorescence intensity between Day=4 samples and Day=0 samples was analyzed.
A releasing ratio of the fluorescent molecules was calculated according to Example 7-2.
Regarding the results, as illustrated in the following Table, a releasing ratio of the fluorescent molecules was evaluated.

| SMILES | aggregation ratio [1] | Releasing ratio of fluorescent molecule for 6 hours [2] | Retention time [3] | Releasing ratio of payload on Day 4 [4] |
| --- | --- | --- | --- | --- |
| CNC(=O)CCSC1CC(=O)N(CCCCCC(=O)N[C@@H](CCC(=O)O)C(=O)N[C@H](C(=O)N[C@@H](CCCNC(N)=O)C(=O)Nc2ccc(COC(=O)N(C)CC(=O)NCc3cc4ccc5cccc6ccc(c3)c4c56)cc2)C(C)C)C1=O (stereo partly drawn) [ADC mimic 1] | 3.0% | 88% | 12.8 min | 8% |
| CNC(=O)CCSC1CC(=O)N(CCCCCC(=O)N(CC(=O)O)CC(=O)N[C@H](C(=O)N[C@@H](CCCNC(N)=O)C(=O)Nc2ccc(COC(=O)N(C)CC(=O)NCc3cc4ccc5cccc6ccc(c3)c4c56)cc2)C(C)C)C1=O (stereo partly drawn) [ADC mimic 3] | 2.9% | 100% | 12.7 min | 9% |
| CNC(=O)CCSC1CC(=O)N(CCCCCC(=O)N[C@@H](C(=O)N[C@H](CCCNC(N)=O)C(=O)Nc2ccc(COC(=O)N(C)CC(=O)NCc3cc4ccc5cccc6ccc(c3)c4c56)cc2)C(C)C)C1=O (stereo partly drawn) [ADC mimic 4, reference compound] | 6.2% | 53% | 13.1 min | 38% |
